# Measurements as given in the RNAGym collection of RNA variant scans (doi:10.7554/elife.80360).
# B1: HDV Ribozyme (parent)
# chain: GGCCGGCAUGGUCCCAGCCUCCUCGCUGGCGCCGGCUGGGCAACAUUCCGAGGGGACCGUCCCCUCGGUAAUGGCGAAUGGGACCCA
# Variants of: B1
# Experiment: self-cleavage, relative activity (ratio to wild type); higher = more cleavage; co-transcriptional
row,Variant,self-cleavage
1,G35U C36A,0.0831
2,G35A G73A,0.372
3,G35A G73U,0.223
4,G35A G73C,0.138
5,G34U G52C,0.101
6,G34U G52U,0.0588
7,G35U C62U,0.486
8,G35U C62A,0.261
9,C36A G38U,0.189
10,C36A G38C,0.0415
11,C36A G38A,0.0845
12,G35C A70C,0.158
13,G35C A70U,0.138
14,G35A G55U,0.577
15,G35A G55A,0.736
16,G35U C75G,0.0378
17,G35U C75A,0.138
18,G35U C75U,0.095
19,C36A G52A,0.158
20,C36A G52U,0.14
21,C36A G52C,0.138
22,G35A,0.605
23,G35C,0.254
24,G35U,0.454

row,Variant,self-cleavage
1,G34U U46A,0.0639
2,C36A C61A,0.0536
3,C36A C61U,0.138
4,G35U G82U,0.162
5,G35U G82C,0.161
6,C36A C64A,0.0405
7,C36A C64G,0.0652
8,G35U G73U,0.19
9,G35C G39A,0.178
10,G35A U69C,0.591
11,G35A U69G,0.541
12,G34U G81U,0.18
13,G35A G54U,0.743
14,G35A U47G,0.443
15,G35A U47C,0.489
16,G35A C49U,0.596
17,G35A C49A,0.591
18,G35U U46C,0.0415
19,G35U G68A,0.351
20,G35A G50A,0.692
21,G35A G50C,0.346
22,G35U G54U,0.448
23,G34U G35C,0.154
24,G34U G35A,0.204

row,Variant,self-cleavage
1,G35C U72G,0.346
2,G35C U72A,0
3,G35C U72C,0.156
4,G35C G55A,0.342
5,G35C G55C,0.366
6,G35C G55U,0.0615
7,G35A G82A,0.265
8,G35A G82C,0.266
9,C36A G39U,0.0906
10,G34U G40C,0.0415
11,G34U G40A,0.0542
12,G35A G53C,0.65
13,G34U G80U,0.128
14,G35C U60C,0.237
15,G35A C44G,0.0639
16,G35A C44A,0
17,G35A C44U,0.188
18,G34U C86G,0.205
19,G34U C86A,0.325
20,G34U C86U,0.187
21,G35C A83U,0.0898
22,G35U C57G,0.415
23,G35U C57U,0.538
24,G35U C57A,0.517

row,Variant,self-cleavage
1,C36A C75G,0.154
2,G35U G76A,0.404
3,G35C C49G,0.0449
4,G35C C49U,0.203
5,C36A A43U,0.198
6,C36A A43C,0.095
7,G35U G59A,0.415
8,G35U G59C,0.7
9,G35A G67U,0.361
10,G35A G67A,0.328
11,G35A G67C,0.564
12,C36A A78C,0.155
13,C36A A78U,0
14,C36A A78G,0.0652
15,G35C A43G,0.111
16,G35C A43C,0.17
17,G35C C44U,0.0536
18,G35C C44A,0.0573
19,G35C G73A,0.0723
20,G35C G73U,0.181
21,C36A C85G,0.18
22,C36A C85A,0.457
23,G35A C85G,0.643
24,G35A C85A,0.644

row,Variant,self-cleavage
1,G35C A78U,0.0475
2,G35C A78G,0.262
3,G35U C63A,0.389
4,G35U C58A,0.554
5,G35U C58U,0.249
6,C36A A71C,0.0573
7,C36A A71G,0.0405
8,C36A A71U,0.309
9,G35C C84U,0.256
10,G35A A56U,0.72
11,G34U U47G,0.267
12,G34U U47A,0.128
13,G34U U60A,0.0817
14,G34U U60G,0.166
15,G34U U60C,0.175
16,G35A C63U,0.91
17,G35A C63A,0.332
18,G35A C57U,0.686
19,C36A C66G,0.177
20,C36A C66U,0.134
21,G35U C84U,0.343
22,G35U C84G,0.185
23,G35C G40C,0.185
24,G35U A70C,0.354

row,Variant,self-cleavage
1,G35A G81U,0.105
2,G35A G81C,0.188
3,G35A G68C,0.676
4,G35A G68U,0.584
5,G35A G68A,0.496
6,G35A A70G,0.491
7,G35A A70C,0.434
8,G35A A42G,0.17
9,G35U C44A,0
10,G35U C44G,0.0755
11,G34U C84U,0.261
12,G35A G52A,0.47
13,G35A G52C,0.409
14,G35A G52U,0.513
15,G35A A51C,0.467
16,G35A A51U,0.496
17,G35A A71C,0.125
18,G35A A71U,0.389
19,G35U A77U,0.175
20,G34U G59U,0.229
21,G35A G76U,0.902
22,G35A G76C,0.708
23,G35C A71C,0
24,G35U U37G,0.095

row,Variant,self-cleavage
1,G35U U37A,0.155
2,G35U U37C,0.428
3,G35A G74C,0.208
4,G35A G74A,0.157
5,G35U U69G,0.302
6,G35U U69C,0.253
7,G35A C66A,0.415
8,G35A C66G,0.655
9,G35U C85U,0.623
10,G35A U60A,0.596
11,G35A U60C,0.554
12,C36A A87C,0.147
13,C36A A87U,0.0587
14,G35U A56U,0.62
15,G35U A56C,0.358
16,G35U A56G,0.393
17,G35U G40C,0.136
18,G35C C64U,0.348
19,G35U C64A,0.351
20,G35U C64G,0.403
21,G35U A45G,0.365
22,G35C G54A,0.151
23,G35C G54U,0.326
